Target: HLA-A*02:01 (Homo sapiens, UniProt P04439, D140Y/D185E/D98H/E176V/E277Q/G131W/G231S/I119V/I121R/I166T/I218V/L300P/L318F/N151K/N90K/P208A/P217A/Q86G/Q94H/R138H/R169H/T345S)
Experiment: MHC binding assay (UV-ligand exchange, beta2m ELISA)
Settings: binding to HLA-A*02:01, β2m ELISA
Description: Candidate peptides for T cell based therapies according to the present invention were further tested for their MHC binding capacity (affinity). The individual peptide-MHC complexes were produced by UV-ligand exchange, where a UV-sensitive peptide is cleaved upon UV-irradiation, and exchanged with the peptide of interest as analyzed. Only peptide candidates that can effectively bind and stabilize the peptide-receptive MHC molecules prevent dissociation of the MHC complexes. To determine the yield of the exchange reaction, an ELISA was performed based on the detection of the light chain (β2m) of stabilized MHC complexes. The assay was performed as generally described in Rodenko et al. (Rodenko et al., 2006).
96 well MAXISorp plates (NUNC) were coated over night with 2 ug/ml streptavidin in PBS at room temperature, washed 4× and blocked for 1 h at 37° C. in 2% BSA containing blocking buffer. Refolded HLA-A*02:01/MLA-001 monomers served as standards, covering the range of 15-500 ng/ml. Peptide-MHC monomers of the UV-exchange reaction were diluted 100 fold in blocking buffer. Samples were incubated for 1 h at 37° C., washed four times, incubated with 2 ug/ml HRP conjugated anti-82m for 1 h at 37° C., washed again and detected with TMB solution that is stopped with […]. Absorption was measured at 450 nm. Candidate peptides that show a high exchange yield (preferably higher than 50%, most preferred higher than 75%) are generally preferred for a generation and production of antibodies or fragments thereof, and/or T cell receptors or fragments thereof, as they show sufficient avidity to the MHC molecules and prevent dissociation of the MHC complexes.

Peptide exchange (MHC class I binding score, peptide exchange yield)	Substance
++++ (≥75% = ++++)	1 (KLQEKIQEL; listed as Homo sapiens) [compound 1]
+++ (≥50 = +++)	10 (QLIEKNWLL; listed as Homo sapiens) [compound 10]
+++ (≥50 = +++)	11 (LLDPKTIFL; listed as Homo sapiens) [compound 11]
++ (≥20% = ++)	19 (KVFELDLVTL; listed as Homo sapiens) [compound 19]
+++ (≥50 = +++)	21 (YLMDDFSSL; listed as Homo sapiens) [compound 21]
+++ (≥50 = +++)	22 (LMYPYIYHV; listed as Homo sapiens) [compound 22]
+++ (≥50 = +++)	26 (VLDGKVAVV; listed as Homo sapiens) [compound 26]
++ (≥20% = ++)	28 (IKVTDPQLLEL; listed as Homo sapiens) [compound 28]
+++ (≥50 = +++)	30 (IITEVITRL; listed as Homo sapiens) [compound 30]
+++ (≥50 = +++)	31 (GLLETTGLLAT; listed as Homo sapiens) [compound 31]
++ (≥20% = ++)	33 (TLDRNSLYV; listed as Homo sapiens) [compound 33]
+++ (≥50 = +++)	36 (TVLQELINV; listed as Homo sapiens) [compound 36]
++ (≥20% = ++)	38 (VLQQESNFL; listed as Homo sapiens) [compound 38]
+++ (≥50 = +++)	44 (AVFNLVHVV; listed as Homo sapiens) [compound 44]

Second part, the substance before the results:

Substance	Peptide exchange (MHC class I binding score, peptide exchange yield)
3 (RVIDDSLVVGV; listed as Homo sapiens) [compound 3]	+++ (≥50 = +++)
5 (GLVDIMVHL; listed as Homo sapiens) [compound 5]	+++ (≥50 = +++)
6 (FLNAIETAL; listed as Homo sapiens) [compound 6]	++++ (≥75% = ++++)
7 (ALLQALMEL; listed as Homo sapiens) [compound 7]	+++ (≥50 = +++)
12 (RLLDPKTIFL; listed as Homo sapiens) [compound 12]	+++ (≥50 = +++)
13 (RLHDENILL; listed as Homo sapiens) [compound 13]	+++ (≥50 = +++)
16 (SLADLSLLL; listed as Homo sapiens) [compound 16]	+++ (≥50 = +++)
20 (ALVEKGEFAL; listed as Homo sapiens) [compound 20]	++ (≥20% = ++)
23 (ALLSPLSLA; listed as Homo sapiens) [compound 23]	+++ (≥50 = +++)
24 (KVWSDVTPL; listed as Homo sapiens) [compound 24]	+++ (≥50 = +++)
25 (LLWGHPRVALA; listed as Homo sapiens) [compound 25]	+++ (≥50 = +++)
37 (QIVELIEKI; listed as Homo sapiens) [compound 37]	++ (≥20% = ++)
40 (KIWEELSVLEV; listed as Homo sapiens) [compound 40]	+++ (≥50 = +++)
41 (IVTEIISEI; listed as Homo sapiens) [compound 41]	+++ (≥50 = +++)
42 (KQMSISTGL; listed as Homo sapiens) [compound 42]	++ (≥20% = ++)

Reference: US10081665B2, “Peptides and combination of peptides for use in immunotherapy against various tumors” (immatics biotechnologies GmbH, priority 2015, dated 2018)
